Key:
Assay in all cases: Km for hydrolysis of fluorogenic substrate Arg2-2NA
[1] = substrate: N=C(N)NCCC[C@H](NC(=O)[C@@H](N)CCCNC(=N)N)C(=O)Nc1ccc2ccccc2c1; type: biochemical; conditions: other: pH 7.4 (20 mM Tris–HCl buffer), 25 °C, initial reaction rates
Protocol: (§1) The Km values for hydrolysis of fluorogenic substrate Arg2-2NA were determined at pH 7.4 (20 mM Tris–HCl buffer) and at 25 °C, from the initial reaction rates as previously described.[26]

[2] = substrate: N=C(N)NCCC[C@H](NC(=O)[C@@H](N)CCCNC(=N)N)C(=O)Nc1ccc2ccccc2c1; type: biochemical, Bacteroides thetaiotaomicron; conditions: other: pH 7.4 (20 mM Tris–HCl buffer), 25 °C, initial reaction rates, B. thetaiotaomicron DPP III
Protocol: as §1

[3] = substrate: N=C(N)NCCC[C@H](NC(=O)[C@@H](N)CCCNC(=N)N)C(=O)Nc1ccc2ccccc2c1; type: biochemical, yeast (Saccharomyces cerevisiae); conditions: other: pH 7.4 (20 mM Tris–HCl buffer), 25 °C, initial reaction rates, yeast DPP III
Protocol: as §1

B1: Porphyromonas gingivalis DPP III (Porphyromonas gingivalis W83) (protein)
chain: MTKETTQHRSGERIARFADIEVLSYRADLFGTLTPKQRMLCYHLSEAALRGRDITTIQNCRYNLWVRSLMERIYTHLSKSERTDDFALLEEYLFCIWFANGIHHHYSGAKFIARFSPGFLRAALREAGVELEPEEQVLLERVLYDTDFLPKQTEQSGEEDIIKASSVNFYAPGITRAEAESHYKNLIEALPENEKSCPPSFGLNTRLIRSTSGELKDEVCCIDGLYGPAIEAVVASLEAAIPYTENEEQAACIRLLCDYYRTGDIRLYDRFCIRWVENNRTRIDFINGFTEVYADPIGIHGSWEGLVHMQDEEAGRRTRIISEHAGWFEAHSPIDARFRKKNPHGISATVVNVLTIAGDSYPATPIGINLPNADWIRAEHGSKSVTIDNITDAYNHAARGTGLYEEFIPDEEVRRHVELHADLTDSLHTDLHECLGHGSGQLLPGVPGDALGEHASTLEETRADLFALYFLADPKMIELGLLTDPDAYKANYYKYMLNGLMTQLVRIKRGEEIEEAHMRNRALIARYVLEHAERPGAMSLVCEEGKTALVIKDYEAVRAIIAGLLTEVQRIKSEGDYTAGKALVERYAVHVDPLLHEEVLTRYAKLDIAPYKGFVNPRLRPVYNSEGRLTDATIEYTEGYAEQMLRYSAEYSFLPTDSPLLQEARRLRSHLRRAMDGVLSASMREKGLHYGINFGVTREHLLRLARTADASAPLADYLWRRDVRETKILATMIFPAEELTHEQATRLLREADNVELREQLTANLLERMPEAIRSIGRWIESKETTPDMMTGVLTLAARLFTRGIFPEDVPAEKLLTLAILHLSDEEQKAELRRASALLLKRYGRGSAERTKKVLCLLPESSQDTAPVLYELCEDIRFELDFYPKDE
**Q.** For B1, which Km ([1]; Porphyromonas gingivalis DPP III) is on record?
**A.** Its Km is 0.3 µM.

B2: B. thetaiotaomicron DPP III (Bacteroides thetaiotaomicron VPI-5482) (protein)
chain: MAVTATILASCGGAKTTTAEADKFDYTVEQFADLQILRYKVPEFETLTLKQKELVYYLTQAALEGRDILFDQNGKYNLRIRRMLEAVYTNYKGDKSAPDFKNMEVYLKRVWFSNGIHHHYGMEKFVPGFSQDFLKQAVLGTDAQLLPLSEGQTAEQLCDELFPVMFDPAILAKRVNQADGEDLVLTSACNYYDGVTQQEAESFYGAMKDPKDETPVSYGLNSRLVKEDGKIQEKVWKVGGLYTQAIEKIVYWLKKAETVAENDAQKAVISKLIQFYETGSLKDFDEYAILWVKDLDSRIDFVNGFTESYGDPLGVKASWESLVNFKDLDATHRTEIISSNAQWFEDHSPVDKSFKKEKVKGVSAKVITAAILAGDLYPATAIGINLPNANWIRAHHGSKSVTIGNITDAYNKAAHGNGFNEEFVCNDEERQRIDQYGDLTGELHTDLHECLGHGSGKLLPGVDPDALKAYGSTIEEARADLFGLYYVADPKLVELKLVPDAEAYKAEYYTFLMNGLMTQLVRIEPGNNIEEAHMRNRQLIARWVFEKGAPDKVVEMVKKDGKTYVVVNDYEKVRQLFGELLAEIQRIKSTGDFEGARTLVENYAVKVDPALHAEVLARYKKLNLAPYKGFINPVYELVTDKDGNITDVTVSYNEDYVEQMLRYSKDYSPLPSVNN
**Q.** Which Km [2] does the source give for B2 here?
**A.** The Km was 0.8 µM.

B3: human DPP III (Homo sapiens) (protein)
chain: ADTQYILPNDIGVSSLDCREAFRLLSPTERLYAYHLSRAAWYGGLAVLLQTSPEAPYIYALLSRLFRAQDPDQLRQHALAEGLTEEEYQAFLVYAAGVYSNMGNYKSFGDTKFVPNLPKEKLERVILGSEAAQQHPEEVRGLWQTCGELMFSLEPRLRHLGLGKEGITTYFSGNCTMEDAKLAQDFLDSQNLSAYNTRLFKEVDGEGKPYYEVRLASVLGSEPSLDSEVTSKLKSYEFRGSPFQVTRGDYAPILQKVVEQLEKAKAYAANSHQGQMLAQYIESFTQGSIEAHKRGSRFWIQDKGPIVESYIGFIESYRDPFGSRGEFEGFVAVVNKAMSAKFERLVASAEQLLKELPWPPTFEKDKFLTPDFTSLDVLTFAGSGIPAGINIPNYDDLRQTEGFKNVSLGNVLAVAYATQREKLTFLEEDDKDLYILWKGPSFDVQVGLHELLGHGSGKLFVQDEKGAFNFDQETVINPETGEQIQSWYRSGETWDSKFSTIASSYEECRAESVGLYLCLHPQVLEIFGFEGADAEDVIYVNWLNMVRAGLLALEFYTPEAFNWRQAHMQARFVILRVLLEAGEGLVTITPTTGSDGRPDARVRLDRSKIRSVGKPALERFLRRLQVLKSTGDVAGGRALYEGYATVTDAPPECFLTLRDTVLLRKESRKLIVQPNTRLEGSDVQLLEYEASAAGLIRSFSERFPEDGPELEEILTQLATADARFWKGPSEAPSGQA
**Q.** With B3 as the protein, how does the Km ([1]; human DPP III) read?
**A.** The Km was 6.0 µM.

B4: yeast DPP III (Saccharomyces cerevisiae S288C) (protein)
chain: MSHFFADHDAPLSMLSVKTEYFPQLTDKEQKYAHFMSKASHAGSRVVMRQVSHESEPIFDLILAIHSKLNGKYPEDDITQKQQTGLYLEYVSQFLSNLGNFKSFGDTKFIPRCEVKFFKQLLELAKINPCSSPLTLSPVDVNHEFTSHHLFSTINELIDIGIYHVEEKAALLGFPSQGYTSAYYLGLPVTPEDMALLKEQLFAELAILPENTRINKVGENSFQIWVASENVKNQITETYPSGQITLSNAVTKVEFIFGDHSREMRLVASYLKEAQKFAANDTQKAMLQEYINHFVTGSSQAHKEAQKLWVKDISPVIETNIGFIETYREPSGIIGEFESLVAIQNKERTAKFSSLVNNAEEFISLLPWSKDYEKPIFNPPDFTSLEVLTFTGSGIPAGINIPNYDDVRLKIGFKNVSLGNILSAAAKSSSKHPPSFISQEDRPIFEKYQSDSFEVQVGIHELLGHGSGKLLTEFTDGFNFDKENPPLGLDGKPVSTYYKVGETWGSKFGQLAGPFEECRAEVIAMFLLTNKKILDIFGFHDVESQDKVIYAGYLQMARAGLLALEYWNPKTGKWGQPHMQARFSIMKTFMKHSTDKNFLKLEMNSTNDDFAIKLDKSLIKTAGHECVKDYLKHLHVYKCSGDVEQGSKYFIDRSTVTPDLASLRDIVLSKRLPRRQFIQSNSYIDDNNKVTLKEYDETPQGMLQSFLDREL
**Q.** Which Km [3] does the source give for B4 here?
**A.** The Km was 12 µM.

B5: Physcomitrella patens DPP III (Physcomitrium patens) (protein)
chain: MEGFQEEFSLGECLDVLTAAGLRTGDVKKRHLVHADGDYHRAVHVWLFVESTQELVLQKRADCKDSWPGLWDISSAGHISAGDTSLLTARRELQEELGITLPADAFEFLFDYLQECVINGGKYINNEYNDVYLVTLVDHIPVEAFTLQETEVSAVKYMKWQDYEDAVRKEDSSYVPCDVDGGYSALFSALRRRYEVDTSAKLEELQMHINRYVPVEIHGETTGLSKGDLLALSDTIRAAKLLDRIFLEQEWATNPALKDSLQAASGKSELDRLKFAYYLINKSPWSILDENDAFLTTADSAIQIAEGAVDESVTWGGKVRYRAAFPVEKAPGANFYPVDMDKEEFQAWKDGLDKGQQADATSFFTTIRRSGDIHDADGAKVHDLKIVPYSKEYATILKEASYLLHKAGDSAENPSLKRLLKAKADAFLSNDYYESDIAWMELDSPLDVTIGPYETYEDGLFGYKATFEAFIGIRDDEATQRLKLFSHNLQEMEDNLPMDDEYKSKTVTFSPIRVIQLLYNSGDVKGPQTVAFNLPNDDRIVKERGTAMVMLKNISQAKFDYILLPIANVCVEASQRGAVDFDSFFTHTICHECCHGIGPHNIVTPDGRASTVRLELQEVYSAIEEAKADIVGLWALHFLVDKGLLPRSLENTMYVSFLAGCFRSIRFGLEEAHGKGQALQFNFILEKGGFSYHPDGTFSVDYTKVRQCVEDLSRLILTIEAKGDKAGAEALLAKYAALTPQLQQSFDALQDVQVPVDIFPTFKLLDDIKL
**Q.** With B5 as the protein, how does the Km ([1]; Physcomitrella patens DPP III) read?
**A.** Its Km is 23.8 µM.

B6: Caldithrix abyssi DPP III (Caldithrix abyssi DSM 13497) (protein)
chain: MKRILLVLLTLVFLGAIACQKKEENKTEMVKLKRMIAQFAPTEIKYDHSLLDERKQKVVENLYRAAKIMDEIFLDQVYSKNFEIREQLRASSDPLDQLRLEYFTIMFGPFDRLNHDKPFIGNTPKPKGANFYPPDMTREEFENWLKAHPEDEAAFTSEFTVIRRQDGKLVAIPYSEYYKEYLTRAADYLKKAAEFADNPSLKKYLQLRAEAFLNNDYYESDLAWMDLNDHTIEVVIGPYEVYEDKLFNYKAAFEAFITLRDPVESAKLKKFVGYLDEMEKNLPIPDAYKNFNRGSESPMVVVQEVFSAGDTKAGVQTLAFNLPNDERVREAKGSKKVMLKNIHEAKFDKLLKPIAEKVLFAEQLPLVTFEGFFNHTLMHEISHGLGPGKIVLNGRQTEVKKELKETYSSIEECKADVLGMYNNLFMIEKGVYPPEFEKQIYVTFLAGIFRTIRFGINEAHGAGNAVIFNYLLEKGAYQFDPAAHRVKVNFEKIKDGVRDLANKVLTIQAQGDYMAAKNLLETYAVESEPIMIMRARLQELPVDIKPIFQIEKELGNSN
**Q.** For B6, which Km ([1]; Caldithrix abyssi DPP III) is on record?
**A.** Its Km is 15.9 µM.

From publication PMC9079729, “Conservation of the conformational dynamics and ligand binding within M49 enzyme family” (RSC Advances, 2018)
